Data: patent US6586402B1, “LH-RH peptide analogues, their uses and pharmaceutical compositions containing them” (Laboratoire Theramex, priority 1997, dated 2003)
Square brackets hold non-standard residues; d marks the D form. dPhe(4-Cl) = N[C@H](Cc1ccc(Cl)cc1)C(=O)O; d(hCit) = NC(=O)NCCCC[C@@H](N)C(=O)O; dCit = NC(=O)NCCC[C@@H](N)C(=O)O; tBuAla = CC(C)(C)C[C@H](N)C(=O)O; d3Pal = N[C@H](Cc1cccnc1)C(=O)O

T1: LH-RH receptors (Rattus norvegicus, UniProt P30969)
T1 sequence (P30969 1-327): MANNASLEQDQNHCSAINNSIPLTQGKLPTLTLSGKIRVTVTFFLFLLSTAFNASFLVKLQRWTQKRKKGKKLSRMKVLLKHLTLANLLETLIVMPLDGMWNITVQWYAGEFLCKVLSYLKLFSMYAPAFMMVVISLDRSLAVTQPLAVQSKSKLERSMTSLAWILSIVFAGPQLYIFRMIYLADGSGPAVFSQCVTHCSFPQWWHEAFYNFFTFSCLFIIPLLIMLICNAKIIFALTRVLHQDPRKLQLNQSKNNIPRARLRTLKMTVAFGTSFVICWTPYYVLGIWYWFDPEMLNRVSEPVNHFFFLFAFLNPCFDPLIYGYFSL

B1: pGlu-His-Trp-Ser-Tyr-D-Nal-Npg-Arg-Pro-Gly-NH2 (peptide)
peptide: XHWSYXXRPG
modifications: pGlu at 1; D-Nal (3-(2-naphtyl)alanine) at 6; Npg at 7; C-terminal Gly-NH2 (amide)
B2: AcD-Nal-D-pClPhe-D-Pal-Ser-Tyr-D-Cit-Npg-Arg-Pro-D-Ala-NH2 (peptide)
peptide: Ac-X[dPhe(4-Cl)][d3Pal]SY[dCit][tBuAla]RP[dA]-NH2
modifications: not fully specified (residue 1); printed as AcD-Nal-D-pClPhe-D-Pal-Ser-Tyr-D-Cit-Npg-Arg-Pro-D-Ala-NH2; also: trifluoroacetate salt
B3: AcD-Nal-D-pClPhe-D-Pal-Ser-Tyr-D-HCit-Npg-Arg-Pro-D-Ala-NH2 (peptide)
peptide: Ac-X[dPhe(4-Cl)][d3Pal]SY[d(hCit)][tBuAla]RP[dA]-NH2
modifications: not fully specified (residue 1); printed as AcD-Nal-D-pClPhe-D-Pal-Ser-Tyr-D-HCit-Npg-Arg-Pro-D-Ala-NH2; also: trifluoroacetate salt

Target: T1, LH-RH receptors
Assay: biochemical

Point of comparison: `CCNC(=O)[C@@H]1CCCN1C(=O)[C@H](CCCNC(=N)N)NC(=O)[C@H](CC(C)C)NC(=O)[C@@H](COC(C)(C)C)NC(=O)[C@H](Cc1ccc(O)cc1)NC(=O)[C@H](CO)NC(=O)[C@H](Cc1c[nH]c2ccccc12)NC(=O)[C@H](Cc1cnc[nH]1)NC(=O)[C@@H]1CCC(=O)N1` [Buserelin, reference compound], Ki 0.447 nM. Against it:
- CCNC(=O)[C@@H]1CCCN1C(=O)[C@H](CCCNC(=N)N)NC(=O)[C@H](CC(C)(C)C)NC(=O)[C@@H](CC(C)(C)C)NC(=O)[C@H](Cc1ccc(O)cc1)NC(=O)[C@H](CO)NC(=O)[C@H](Cc1c[nH]c2ccccc12)NC(=O)[C@H](Cc1c[nH]cn1)NC(=O)[C@@H]1CCC(=O)N1 [Example 8, pGlu-His-Trp-Ser-Tyr-D-Npg-Npg-Arg-Pro-NEt] — 4.2-fold higher, 1.86 nM
- CCNC(=O)[C@@H]1CCCN1C(=O)[C@H](CCCNC(=N)N)NC(=O)[C@H](CC(C)(C)C)NC(=O)[C@@H](Cc1ccc2ccccc2c1)NC(=O)[C@H](Cc1ccc(O)cc1)NC(=O)[C@H](CO)NC(=O)[C@H](Cc1c[nH]c2ccccc12)NC(=O)[C@H](Cc1c[nH]cn1)NC(=O)[C@@H]1CCC(=O)N1 [Example 14, pGlu-His-Trp-Ser-Tyr-D-Nal-Npg-Arg-Pro-NEt] — within 1.5-fold, 0.316 nM

Target: LH-RH receptors (membrane fractions of pituitaries from female Sprague Dawley rats) (rat (female Sprague Dawley)) (UniProt P30969)
Assay: competition with [125I]-buserelin, rat pituitary membranes; Ki by Cheng-Prusoff

Point of comparison: “AcD-Nal-D-pClPhe-D-Pal-Ser-Tyr-D-Cit-Npg-IprLys-Pro-D-Ala-NH2 (peptide)”, pKi 9.72 -log Ki. Against it:
- Goserelin (peptide) — lower, 8.58 -log Ki
- AcD-Nal-D-pClPhe-D-Pal-Ser-NicLys-D-NicLys-Npg-IprLys-Pro-D-Ala-NH2 (peptide) — lower, 9.23 -log Ki
- XHWSYXXRPG (pGlu at 1; D-Ala at 6; Npg at 7; C-terminal Gly-NH2 (amide)) [pGlu-His-Trp-Ser-Tyr-D-Ala-Npg-Arg-Pro-Gly-NH2] — lower, 9.57 -log Ki
- XHWSYXXRPG (pGlu at 1; D-Npg at 6; Npg at 7; C-terminal Gly-NH2 (amide)) [pGlu-His-Trp-Ser-Tyr-D-Npg-Npg-Arg-Pro-Gly-NH2] — lower, 8.2 -log Ki
- XHWSYXXRPG (pGlu at 1; D-Phe at 6; Npg at 7; C-terminal Gly-NH2 (amide)) [pGlu-His-Trp-Ser-Tyr-D-Phe-Npg-Arg-Pro-Gly-NH2] — lower, 8.63 -log Ki
- B1 — lower, 8.97 -log Ki
- B2 — higher, 10.2 -log Ki
- B3 — higher, 10.1 -log Ki
